# Data reported in PMC11890623, “Pseudomonas aeruginosa acyl-CoA dehydrogenases and structure-guided inversion of their substrate specificity” (Nature Communications, 2025).
# B1: FadE2 (Pseudomonas aeruginosa PAO1) (protein)
# chain: MADYKAPLRDMRFVLNEVFEVSRLWAQLPALAEVVDAETAAAILEEAGKVTAGTIAPLNRPGDEEGCQWNAGAVSTPAGFPEAYRTYAEGGWVGVGGDPAYGGMGMPKVISAQVEELVNSANLSFGLYPMLTAGACLALNAHASDELKDKYLPNMYAGIWAGSMCLTEPHAGTDLGIIRTRAEPQADGSYKISGTKIFITGGEHDLTENIIHLVLAKLPDAPAGPKGISLFLVPKVLVNADGSLGEKNSLGCGSIEHKMGIKASATCVMNFDGATGWLVGEVNKGLAAMFTMMNYERLGVGIQGLATGERSYQSAIEYARERIQSRAPTGPVAKDKAADPIIVHPDVRRMLLTMKALNEGGRAFSSYVAMQLDTAKYSEDAVTRKRAEELVALLTPVAKAFLTDMGLETTIHGQQIFGGHGFIREWGQEQLVRDCRITQIYEGTNGIQALDLVGRKVIGSGGAFSRHFTDEIKAFVASADEALGEFSKPLAAAVENLEELTAWLLDRAKGNPNEIGAASVEYLHVFGYTAYAYMWALMARTALAKQGEDDFYASKLGTARFYFARLLPRIHSLSASVRAGSESLYLLDAEQF
# notes: full-length ORF, His6 tag removed by TEV
# How the values were obtained:
# Test in all cases: Michaelis-Menten kinetics of purified enzyme (KM)
# Type in all cases: biochemical, Pseudomonas aeruginosa
# Details in all cases: FAD
# [1] = substrate: CCCC(=O)SCCNC(=O)CCNC(=O)[C@H](O)C(C)(C)COP(=O)(O)OP(=O)(O)OC[C@H]1O[C@@H](n2cnc3c(N)ncnc32)[C@H](O)[C@@H]1OP(=O)(O)O
# [2] = substrate: CCCCCC(=O)SCCNC(=O)CCNC(=O)[C@H](O)C(C)(C)COP(=O)(O)OP(=O)(O)OC[C@H]1O[C@@H](n2cnc3c(N)ncnc32)[C@H](O)[C@@H]1OP(=O)(O)O
# [3] = substrate: CCCCCCCC(=O)SCCNC(=O)CCNC(=O)[C@H](O)C(C)(C)COP(=O)(O)OP(=O)(O)OC[C@H]1O[C@@H](n2cnc3c(N)ncnc32)[C@H](O)[C@@H]1OP(=O)(O)O
protein,measurement,setting,value
B1,Km,[1],10.35 ± 1.06 µM
same,Km,[2],14.6 ± 1.43 µM
same,Km,[3],21.59 ± 1.23 µM
